# Assay results taken from US20190359687A1 (Bayer, published 2019).
# T1: human glycophorin A on human red blood cells (human, UniProt P02724 20-150)
# T1 construct: whole, on cells; also called human GPA; huGPA
# T1 sequence (looked up): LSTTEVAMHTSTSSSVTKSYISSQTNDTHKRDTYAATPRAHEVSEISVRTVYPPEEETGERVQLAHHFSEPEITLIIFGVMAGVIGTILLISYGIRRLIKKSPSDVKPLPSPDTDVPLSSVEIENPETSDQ
# T2: glycophorin A peptide GP5 (human, biotin at the N-terminus)
# T2 construct: Residues 42 to 61 of the human glycophorin A extracellular domain
# T2 peptide: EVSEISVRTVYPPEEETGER
# Columns and labels:
# [1] = target: T3, Cynomolgus monkey glycophorin A on Cynomolgus monkey red blood cells (Cynomolgus monkey); assay: partition to Cyno RBC, human HemA plasma, 5 min;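 further: FVIII fusion spiked at 1 IU/mL into RBC suspension at whole-blood density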
# T3 construct: whole, on cells; also called Cyno GPA; Cyno RBC
# [2] = target: T1, human glycophorin A on human red blood …; assay: partition to human RBC, vWF deficient plasma, 5 min
# [3] = target: T1, human glycophorin A on human red blood …; assay: partition to human RBC, vWF deficient plasma, 120 min
# [4] = target: T1, human glycophorin A on human red blood …; assay: partition to human RBC, vWF deficient plasma, 60 min
# [5] = target: T3, Cynomolgus monkey glycophorin A on …; assay: partition to Cyno RBC, human HemA plasma, 1 min;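 further: FVIII fusion spiked at 1 IU/mL into RBC suspension at whole-blood density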
# [6] = target: T3, Cynomolgus monkey glycophorin A on …; assay: partition to Cyno RBC, human HemA plasma, 120 min;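 further: FVIII fusion spiked at 1 IU/mL into RBC suspension at whole-blood density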
# [7] = target: T1, human glycophorin A on human red blood …; assay: partition to human RBC, vWF deficient plasma, 30 min
# [8] = target: T1, human glycophorin A on human red blood …; assay: partition to human RBC, vWF deficient plasma, 1 min
# [9] = target: T3, Cynomolgus monkey glycophorin A on …; assay: partition to Cyno RBC, human HemA plasma, 15 min;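 further: FVIII fusion spiked at 1 IU/mL into RBC suspension at whole-blood density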
# [10] = target: T1, human glycophorin A on human red blood …; assay: partition to human RBC, vWF deficient plasma, 15 min
# [11] = target: T3, Cynomolgus monkey glycophorin A on …; assay: partition to Cyno RBC, human HemA plasma, 30 min;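 further: FVIII fusion spiked at 1 IU/mL into RBC suspension at whole-blood density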
# Procedure: To evaluate partition to cynomolgus monkey or human red blood cells, whole blood was draw from Cynomolgus monkey or normal human volunteers in to anticoagulant with 4% sodium citrate (Sigma, St Louis, Mo.). The red blood cells were purified by layering the whole blood on to ficoll followed by low speed centrifugation. The supernatant containing plasma, platelets and white blood cells was discarded and the red blood cell pellet was resuspended in 10 pellet volumes of PBS (50 mM Phosphate buffer, pH7.4, 150 mM NaCl). The red blood cells were then pelleted by slow speed centrifugation and the red blood cells re-suspended in 10 volumes of PBS. This washing step was repeated 4 more times and the red blood cells finally resuspended in a volume of plasma from Hemophilia patients with less than 1% of normal levels of FVIII (GeorgeKing Bio-Medical, Overland Park, Kans.) to generate a total volume equal to the initial blood volume such that the RBC density was equal to that of normal whole blood. BDD and RBC targeted FVIII molecules were then spiked into RBC suspension in HemA plasma at 1 IU/mL, and incubated at room temperature for 2-3 hours with gentle rotation. […] An additional control was performed in which BDD or RBC targeted FVIII molecules were added at 11U/ml into the same human hemophilia A plasma and incubated for 5 minutes and 180 mins. These samples were used to determine the input FVIII activity in the presence of plasma which was used to calculate the percentage of the molecule that was bound to RBC. All plasma samples were then assayed together for FVIII activity using the Coatest SP assay (DiaPharma, Columbus, Ohio). The assay was performed following the manufacturer's instructions in a 96-well plate format. […] The plate was incubated at 37° C. for 10 minutes with shaking between each reagent addition.
# [12] = target: T3, Cynomolgus monkey glycophorin A on …; assay: partition to Cyno RBC, human HemA plasma, 60 min;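 further: FVIII fusion spiked at 1 IU/mL into RBC suspension at whole-blood density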
# [13] = target: T2, glycophorin A peptide GP5; assay: Octet, GP5 peptide on the probe, fusion protein in solution, 1:1 fit
% bound to Cyno RBC [1],percentage bound to human RBC [2],percentage bound to human RBC [3],percentage bound to human RBC [4],% bound to Cyno RBC [5],% bound to Cyno RBC [6],percentage bound to human RBC [7],percentage bound to human RBC [8],% bound to Cyno RBC [9],percentage bound to human RBC [10],% bound to Cyno RBC [11],% bound to Cyno RBC [12],Kd [13],koff [13],kon [13],Binder
63%,85.3%,86.3%,88.7%,40.6%,81.8%,87%,76.2%,72.1%,87%,74.2%,80.2%,,,,"TPP-9711 FVIII-scFv fusion protein (other, The entry is the mature protein; also called PPB 7816) ATRRYYLGAVELSWDYMQSDLGELPVDARFPPRVPKSFPFNTSVVYKKTLFVEFTDHLFNIAKPRPPWMGLLGPTIQAEVYDTVVITLKNMASHPVSLHAVGVSYWKASEGAEYDDQTSQREKEDDKVFPGGSHTYVWQVLKENGPMASDPLCLTYSYLSHVDLVKDLNSGLIGALLVCREGSLAKEKTQTLHKFILLFAVFDEGKSWHSETKNSLMQDRDAASARAWPKMHTVNGYVNRSLPGLIGCHRKSVYWHVIGMGTTPEVHSIFLEGHTFLVRNHRQASLEISPITFLTAQTLLMDLGQFLLFCHISSHQHDGMEAYVKVDSCPEEPQLRMKNNEEAEDYDDDLTDSEMDVVRFDDDNSPSFIQIRSVAKKHPKTWVHYIAAEEEDWDYAPLVLAPDDRSYKSQYLNNGPQRIGRKYKKVRFMAYTDETFKTREAIQHESGILGPLLYGEVGDTLLIIFKNQASRPYNIYPHGITDVRPLYSRRLPKGVKHLKDFPILPGEIFKYKWTVTVEDGPTKSDPRCLTRYYSSFVNMERDLASGLIGPLLICYKESVDQRGNQIMSDKRNVILFSVFDENRSWYLTENIQRFLPNPAGVQLEDPEFQASNIMHSINGYVFDSLQLSVCLHEVAYWYILSIGAQTDFLSVFFSGYTFKHKMVYEDTLTLFPFSGETVFMSMENPGLWILGCHNSDFRNRGMTALLKVSSCDKNTGDYYEDSYEDISAYLLSKNNAIEPRSFSQNGGGGSTGGTGGSSGGGTGSGGGGTGGSGGTDIQLTQSPSFLSASVGDRVTITCRASSSVRYIYWFQQKPGKAPKLLIYATSFRQSGVPSRFSGSGSGTEYTLTISSLQPEDFATYYCHQRNSFPYTFGQGTKLEIKGGGGSGGGGSGGGGSGGGGSEVQLVQSGAEVKKPGASVKVSCKASGYTFTTYAIHWVRQAPGQGLEWMGYINPSSGYTRYNPKFKGRVTMTRDKSTSTAYMELRSLRSDDTAVYYCWTGTRDYWGQGTTVTVSSGGGGDENQSPRSFQKKTRHYFIAAVERLWDYGMSSSPHVLRNRAQSGSVPQFKKVVFQEFTDGSFTQPLYRGELNEHLGLLGPYIRAEVEDNIMVTFRNQASRPYSFYSSLISYEEDQRQGAEPRKNFVKPNETKTYFWKVQHHMAPTKDEFDCKAWAYFSDVDLEKDVHSGLIGPLLVCHTNTLNPAHGRQVTVQEFALFFTIFDETKSWYFTENMERNCRAPCNIQMEDPTFKENYRFHAINGYIMDTLPGLVMAQDQRIRWYLLSMGSNENIHSIHFSGHVFTVRKKEEYKMALYNLYPGVFETVEMLPSKAGIWRVECLIGEHLHAGMSTLFLVYSNKCQTPLGMASGHIRDFQITASGQYGQWAPKLARLHYSGSINAWSTKEPFSWIKVDLLAPMIIHGIKTQGARQKFSSLYISQFIIMYSLDGKKWQTYRGNSTGTLMVFFGNVDSSGIKHNIFNPPIIARYIRLHPTHYSIRSTLRMELMGCDLNSCSMPLGMESKAISDAQITASSYFTNMFATWSPSKARLHLQGRSNAWRPQVNNPKEWLQVDFQKTMKVTGVTTQGVKSLLTSMYVKEFLISSSQDGHQWTLFFQNGKVKVFQGNQDSFTPVVNSLDPPLLTRYLRIHPQSWVHQIALRMEVLGCEAQDLY"
-21.9%,92.5%,95.7%,95.8%,0%,2.9%,95.7%,76.5%,-7.8%,95.2%,-8.7%,-19.1%,4 nM,0.00329 s⁻¹,823000 M⁻¹ s⁻¹,"TPP-8798 FVIII-scFv fusion protein (other, The entry is the mature protein; mostly a 2 chain molecule; also called BDD-N scFv; PPB 6705) DIQLTQSPSFLSASVGDRVTITCRASSSVRYIYWFQQKPGKAPKLLIYATSFRQSGVPSRFSGSGSGTEYTLTISSLQPEDFATYYCHQRNSFPYTFGQGTKLEIKGGGGSGGGGSGGGGSGGGGSEVQLVQSGAEVKKPGASVKVSCKASGYTFTTYAIHWVRQAPGQGLEWMGYINPSSGYTRYNPKFKGRVTMTRDKSTSTAYMELRSLRSDDTAVYYCWTGTRDYWGQGTTVTVSSGGGSGGGGSGLVPRGSGGGSGGGGSGATRRYYLGAVELSWDYMQSDLGELPVDARFPPRVPKSFPFNTSVVYKKTLFVEFTDHLFNIAKPRPPWMGLLGPTIQAEVYDTVVITLKNMASHPVSLHAVGVSYWKASEGAEYDDQTSQREKEDDKVFPGGSHTYVWQVLKENGPMASDPLCLTYSYLSHVDLVKDLNSGLIGALLVCREGSLAKEKTQTLHKFILLFAVFDEGKSWHSETKNSLMQDRDAASARAWPKMHTVNGYVNRSLPGLIGCHRKSVYWHVIGMGTTPEVHSIFLEGHTFLVRNHRQASLEISPITFLTAQTLLMDLGQFLLFCHISSHQHDGMEAYVKVDSCPEEPQLRMKNNEEAEDYDDDLTDSEMDVVRFDDDNSPSFIQIRSVAKKHPKTWVHYIAAEEEDWDYAPLVLAPDDRSYKSQYLNNGPQRIGRKYKKVRFMAYTDETFKTREAIQHESGILGPLLYGEVGDTLLIIFKNQASRPYNIYPHGITDVRPLYSRRLPKGVKHLKDFPILPGEIFKYKWTVTVEDGPTKSDPRCLTRYYSSFVNMERDLASGLIGPLLICYKESVDQRGNQIMSDKRNVILFSVFDENRSWYLTENIQRFLPNPAGVQLEDPEFQASNIMHSINGYVFDSLQLSVCLHEVAYWYILSIGAQTDFLSVFFSGYTFKHKMVYEDTLTLFPFSGETVFMSMENPGLWILGCHNSDFRNRGMTALLKVSSCDKNTGDYYEDSYEDISAYLLSKNNAIEPRSFSQNPPVLKRHQREITRTTLQSDQEEIDYDDTISVEMKKEDFDIYDEDENQSPRSFQKKTRHYFIAAVERLWDYGMSSSPHVLRNRAQSGSVPQFKKVVFQEFTDGSFTQPLYRGELNEHLGLLGPYIRAEVEDNIMVTFRNQASRPYSFYSSLISYEEDQRQGAEPRKNFVKPNETKTYFWKVQHHMAPTKDEFDCKAWAYFSDVDLEKDVHSGLIGPLLVCHTNTLNPAHGRQVTVQEFALFFTIFDETKSWYFTENMERNCRAPCNIQMEDPTFKENYRFHAINGYIMDTLPGLVMAQDQRIRWYLLSMGSNENIHSIHFSGHVFTVRKKEEYKMALYNLYPGVFETVEMLPSKAGIWRVECLIGEHLHAGMSTLFLVYSNKCQTPLGMASGHIRDFQITASGQYGQWAPKLARLHYSGSINAWSTKEPFSWIKVDLLAPMIIHGIKTQGARQKFSSLYISQFIIMYSLDGKKWQTYRGNSTGTLMVFFGNVDSSGIKHNIFNPPIIARYIRLHPTHYSIRSTLRMELMGCDLNSCSMPLGMESKAISDAQITASSYFTNMFATWSPSKARLHLQGRSNAWRPQVNNPKEWLQVDFQKTMKVTGVTTQGVKSLLTSMYVKEFLISSSQDGHQWTLFFQNGKVKVFQGNQDSFTPVVNSLDPPLLTRYLRIHPQSWVHQIALRMEVLGCEAQDLY"
